According to article PMC11811267 (Journal of Separation Science, 2025):

Columns and labels:
[1] = Short-term (bench-top) stability at room temperature in artificial plasma with and without 1% PIC; settings: triplicate, 2D-LC-MS/MS
Procedure: (§1) A mixed standard solution containing all insulins at a concentration of 10,000 ng/mL was obtained by diluting the stock solutions with artificial plasma. This stock solution was further diluted with artificial plasma to produce a series of calibration standards at the following concentrations: 50, 100, 150, 250, 500, 1,000, 1500, 2500, 5000, 10 000, and 15 000 pg/mL. Quality control (QC) samples were prepared in artificial plasma at 200, 800, 3000, and 9000 pg/mL and analyzed prior to real human plasma samples. For method validation, four concentration levels were prepared in artificial plasma at 50, 125, 6000, and 13 000 pg/mL. Two concentration levels (193 and 7752 pg/mL) were evaluated for stability testing.
(§2) Each concentration level was tested in triplicate.

[2] = Short-term stability in refrigerator (4°C) in artificial plasma with and without 1% PIC; settings: triplicate, 2D-LC-MS/MS
Procedure: as §1, §2

[3] = Autosampler (re-injection) stability at 4°C for 24 h; assay type: in vitro ADME; settings: autosampler (AS) 4°C, triplicate, 2D-LC-MS/MS
Procedure: (§3) The stability tests of all insulins were performed at two concentration levels (193 and 7752 pg/mL). One set of tests was performed with artificial plasma and the other set with artificial plasma containing 1% PIC. Each concentration level was tested in triplicate. These QC samples were quantified using an artificial plasma calibration curve without PIC, and the obtained concentrations were compared with the nominal concentrations of the low quality control (LQC) and high quality control (HQC), which were set to 100%. To evaluate the stability of insulins in artificial plasma containing 1% PIC, we considered the concentration measured at time zero as the baseline (100%). All subsequent changes in concentration were calculated relative to this initial measurement.
(§4) Short‐term stability, long‐term stability, and freeze‐thaw stability were evaluated in this study. LQC and HQC samples were stored at room temperature and in a refrigerator for 3, 6, and 24 h to assess short‐term (bench‐top) stability and at 4°C in the autosampler for 24 h to assess re‐injection stability.

[4] = Freeze-thaw stability in artificial plasma after storage at −80°C; assay type: in vitro ADME; settings: stored at −80°C, triplicate, 2D-LC-MS/MS; for 24 h, change (%): cycle at 24 h; for 48 h, change (%): cycle at 48 h; for 72 h, change (%): cycle at 72 h
Procedure: as §3, §4

[5] = Long-term stability in artificial plasma at −20°C; assay type: in vitro ADME; settings: triplicate, 2D-LC-MS/MS
Procedure: as §3, §4

[6] = Long-term stability in artificial plasma at −80°C; assay type: in vitro ADME; settings: triplicate, 2D-LC-MS/MS
Procedure: as §3, §4

[7] = Insulin concentrations in patient plasma samples (2D-LC-MS/MS); assay type: in vivo, human
Procedure: Patient samples were collected in K2EDTA tubes, and centrifuged, and 250 µL aliquots were either analyzed immediately or stored at −80°C for analysis the following day. A previously published method [12] was used for sample preparation, including protein precipitation, conversion of analytes to anions, and micro SPE (µSPE) using Oasis MAX multimodal sorbent (Waters) in a 96‐well design. […] QuanRecovery with MaxPeak 700 µL plates (Waters) were used for elution after SPE and subsequent injection for 2D‐LC‐MS/MS analysis.
To assess the clinical applicability of the proposed method, 30 patient samples (16 males and 15 females) were analyzed. Plasma samples (collected in K2EDTA tubes) were supplied to the Department of Forensic Medicine.

[8] = Adsorption test in three types of glass vials; assay type: physicochemical; settings: 15 ng/mL in 6.7% acetic acid in water:methanol (60:40, v/v), UHPLC-MS/MS, Figure S10
Procedure: We prepared stock solutions of all insulins, which were then transferred to three different types of glass vials and analyzed by LC‐MS/MS. For the adsorption test, a mixture of all insulins at a concentration of 15 ng/mL was prepared in a solvent containing 6.7% acetic acid in a water:methanol mixture (60:40, v/v). The mixture was then transferred to three types of vials and analyzed by UHPLC‐MS/MS. This experiment was performed prior to the optimization of the chromatographic method.

[9] = artificial plasma (BZ273) with 1% PIC, 193 pg/mL, % of concentration at time zero (=100%)
[10] = artificial plasma (BZ273) with 1% PIC, 7752 pg/mL, % of concentration at time zero (=100%)
[11] = artificial plasma (BZ273) without PIC, 193 pg/mL, % of nominal concentration (=100%)
[12] = artificial plasma (BZ273) without PIC, 7752 pg/mL, % of nominal concentration (=100%)
[13] = artificial plasma (BZ273) with 1% PIC, 7752 pg/mL, % of concentration at time zero
[14] = artificial plasma (BZ273) without PIC, 7752 pg/mL, % of nominal concentration
[15] = artificial plasma (BZ273) with 1% PIC, 193 pg/mL, % of concentration at time zero

Question: Which results are given for Human insulin?
Answer: 0 h, change (%) [1, 9]: 100.0%; 24 h, change (%) [1, 9]: 72.1%; 0 h, change (%) [1, 10]: 100.0%; 6 h, change (%) [1, 10]: 86.4%; 24 h, change (%) [1, 10]: 67.4%; 0 h, change (%) [1, 11]: 100.1%; 0 h, change (%) [1, 12]: 99.1%; 6 h, change (%) [1, 12]: 95.1%; 3 h 4°C, change (%) [2, 9]: 100.4%; 24 h 4°C, change (%) ([2]; artificial plasma (BZ273) with 1% PIC, 193 pg/mL, 24 h, % of concentration at time zero (=100%)): 87.9%; 6 h 4°C, change (%) [2, 10]: 98.6%; 6 h 4°C, change (%) [2, 11]: 105.6%; 3 h 4°C, change (%) [2, 12]: 90.2%; 24 h AS, change (%) ([3]; extracted samples from artificial plasma with 1% PIC, 193 pg/mL, % of concentration at time zero (=100%)): 105.9%; 24 h AS, change (%) ([3]; extracted samples from artificial plasma without PIC, 7752 pg/mL, % of nominal concentration (=100%)): 100.5%; 24 h, change (%) [4, 13]: 111.6%; 24 h, change (%) [4, 14]: 100.2%; 48 h, change (%) [4, 15]: 116.6%; 48 h, change (%) [4, 14]: 94.6%; 72 h, change (%) [4, 13]: 92.9%; 72 h, change (%) [4, 14]: 87.1%; 1 week, change (%) [5, 15]: 70.1%; 1 week, change (%) [5, 13]: 54.9%; 2 weeks, change (%) [5, 13]: 61.8%; 2 weeks, change (%) ([5]; artificial plasma (BZ273) without PIC, 193 pg/mL, % of nominal concentration): 106.3%; 3 weeks, change (%) ([5]; 3 weeks, artificial plasma (BZ273) with 1% PIC, 7752 pg/mL, % of concentration at time zero): 25.9%; 1 week, change (%) ([6]; 1 week, artificial plasma (BZ273) without PIC, 7752 pg/mL, % of nominal concentration): 100.1%; 2 weeks, change (%) [6, 15]: 105.8%; 2 weeks, change (%) [6, 13]: 111.9%; 2 weeks, change (%) [6, 14]: 106.0%; Concentration range (pg/mL) in patient samples ([7]; human plasma (K2EDTA), 30 patient samples from the Department of Forensic Medicine (unexplained deaths), range over quantified samples): 219.1 to 6065.2 pg/mL; Concentration in a real patient sample ([7]; human plasma, single patient sample of Figure 2): LLOQ; Difference in concentration between vial types (adsorption to container surfaces) [8]: up to 50%
